Source: publication PMC3239214 (Nucleic Acids Research, 2011)

Biological target: the molecule itself
Experiment: SEC

B1: GyrA_ΔCTD (domain or fragment, Bacillus subtilis, UniProt P05653 1-489, looked up)
chain: MSEQNTPQVREINISQEMRTSFLDYAMSVIVSRALPDVRDGLKPVHRRILYAMNDLGMTSDKPYKKSARIVGEVIGKYHPHGDSAVYESMVRMAQDFNYRYMLVDGHGNFGSVDGDSAAAMRYTEARMSKISMEILRDITKDTIDYQDNYDGSEREPVVMPSRFPNLLVNGAAGIAVGMATNIPPHQLGEIIDGVLAVSENPDITIPELMEVIPGPDFPTAGQILGRSGIRKAYESGRGSITIRAKAEIEQTSSGKERIIVTELPYQVNKAKLIEKIADLVRDKKIEGITDLRDESDRTGMRIVIEIRRDANANVILNNLYKQTALQTSFGINLLALVDGQPKVLTLKQCLEHYLDHQKVVIRRRTAYELRKAEARAHILEGLRVALDHLDAVISLIRNSQTAEIARTGLIEQFSLTEKQAQAILDMRLQRLTGLEREKIEEEYQSLVKLIAELKDILANEYKVLEIIREELTEIKERFNDERRTEIVT
- stoichiometry N: 2
